Laboratory results published in PMC4820838, “Quantifying the dynamics of the oligomeric transcription factor STAT3 by pair correlation of molecular brightness” (Nature Communications, 2016).

Target: the molecule itself
Assay: pair correlation of molecular brightness (pCOMB); pair correlation of brightness fluctuations along a 64-pixel confocal line scan from cytoplasm to nucleus of live HeLa cells; amplitude calibrated against free GFP, YFP or mCherry; cells stimulated with 10 nM oncostatin M for 15 min

B1: STAT3-DB-GFP (natural protein, UniProt P40763 1-770, looked up)
chain: MAQWNQLQQLDTRYLEQLHQLYSDSFPMELRQFLAPWIESQDWAYAASKESHATLVFHNLLGEIDQQYSRFLQESNVLYQHNLRRIKQFLQSRYLEKPMEIARIVARCLWEESRLLQTAATAAQQGGQANHPTAAVVTEKQQMLEQHLQDVRKRVQDLEQKMKVVENLQDDFDFNYKTLKSQGDMQDLNGNNQSVTRQKMQQLEQMLTALDQMRRSIVSELAGLLSAMEYVQKTLTDEELADWKRRQQIACIGGPPNICLDRLENWITSLAESQLQTRQQIKKLEELQQKVSYKGDPIVQHRPMLEERIVELFRNLMKSAFVVERQPCMPMHPDRPLVIKTGVQFTTKVRLLVKFPELNYQLKIKVCIDKDSGDVAALRGSRKFNILGTNTKVMNMEESNNGSLSAEFKHLTLREQRCGNGGRANCDASLIVTAALHLITFETEVYHQGLKIDLETHSLPVVVISNICQMPNAWASILWYNMLTNNPKNVNFFTKPPIGTWDQVAEVLSWQFSSTTKRGLSIEQLTTLAEKLLGPGVNYSGCQITWAKFCKENMAGKGFSFWVWLDNIIDLVKKYILALWNEGYIMGFISKERERAILSTKPPGTFLLRFSESSKEGGVTFTWVEKDISGKTQIQSVEPYTKQQLNNMSFAEIIMGYKIMDATNILVSPLVYLYPDIPKEEAFGKYCRPESQEHPEADPGSAAPYLKTKFICVTPTTCSNTIDLPMSPRTLDSLMQFGNNGEGAEPSAGGQFESLTFDMELTSECATSPM
notes: cloned by Ivan Ng in the laboratory of Marie Bogoyevitch and David Jans; source: HeLa cells, transiently transfected, in live cells
  stoichiometry N: 2
